Values belong to the binder of their own block, whether it stands above or below them.
Key:
[1] = molecular target: the molecule itself; experiment: SEC + other: sucrose gradient sedimentation
[2] = molecular target: T1, Bik1 (purified from insect cells, 6xHis tag removed) (S. cerevisiae, UniProt P11709 1-440); experiment: SEC + other: sucrose gradient sedimentation
T1 sequence (looked up): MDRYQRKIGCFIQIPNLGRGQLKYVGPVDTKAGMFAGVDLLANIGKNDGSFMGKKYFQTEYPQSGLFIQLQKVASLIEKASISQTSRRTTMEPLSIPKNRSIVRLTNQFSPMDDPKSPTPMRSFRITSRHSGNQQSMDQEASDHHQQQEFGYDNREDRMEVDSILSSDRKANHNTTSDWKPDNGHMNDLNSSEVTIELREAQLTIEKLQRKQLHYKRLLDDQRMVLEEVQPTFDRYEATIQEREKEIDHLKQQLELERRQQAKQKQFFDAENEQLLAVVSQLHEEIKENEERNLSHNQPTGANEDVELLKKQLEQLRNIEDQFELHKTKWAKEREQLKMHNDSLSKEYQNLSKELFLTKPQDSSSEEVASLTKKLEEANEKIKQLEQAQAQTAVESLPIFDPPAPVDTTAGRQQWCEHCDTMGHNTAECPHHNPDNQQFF

[3] = molecular target: taxol-stabilized microtubules (bovine brain tubulin) (bovine) (UniProt Q6B856); experiment: co-sedimentation

B1: Bik1, endogenous in yeast whole cell extract (natural protein, S. cerevisiae (endogenous in CUY28), UniProt P11709 1-440, looked up)
chain: T1 sequence (looked up)
stoichiometry N [1]: 2

stoichiometry N [2]: 1 Bim1 per Bik1 (2:2 tetramer)
Kd [3]: 500 nM
B2: Bim1 (purified from insect cells, 6xHis tag removed) (natural protein, S. cerevisiae, UniProt P40013 1-344, looked up)
chain: MSAGIGESRTELLTWLNGLLNLNYKKIEECGTGAAYCQIMDSIYGDLPMNRVKFNATAEYEFQTNYKILQSCFSRHGIEKTVYVDKLIRCKFQDNLEFLQWLKKHWIRHKDESVYDPDARRKYRPIITNNSATKPRTVSNPTTAKRSSSTGTGSAMSGGLATRHSSLGINGSRKTSVTQGQLVAIQAELTKSQETIGSLNEEIEQYKGTVSTLEIEREFYFNKLRDIEILVHTTQDLINEGVYKFNDETITGHGNGNGGALLRFVKKVESILYATAEGFEMNDGEDELNDKNLGEHGTVPNQGGYANSNGEVNGNEGSNHDVIMQNDEGEVGVSNNLIIDEETF

B3: Bim1, endogenous in yeast whole cell extract (natural protein, S. cerevisiae (endogenous in CUY28), UniProt P40013 1-344, looked up)
chain: B2 chain
stoichiometry N [1]: 2

Source: PMC2883945 (Molecular Biology of the Cell, 2010)
